The DeepSol protein solubility set

Assay: soluble on expression in E. coli; label from the status in PepcDB or PDB records

Sequence | soluble on expression in E. coli
RIQKLREATDKVASGDYDIHLENSYGDEIGVLASDFNIMAKKLKQSRDEIERLEKRRRQFIADVSHELKTPLTTINGLVEGLNSHTIPEDKKDKCFSLISEETKRMLRLVKENLDYEKIRSQQITLNKLDVPLIEVFEIVKEHLQQQAEEKQNKLMIQVEDHVIVHADYDRFIQILVNITKNSIQFTQNGDIWLRGMEGYKETIIEIEDTGIGIPKEDIEHIWERFYKADISRTNTAYGEYGLGLSIVRQLVEMHQGTVEIKSE | not soluble
RKEDHARLRALNGLLYKALTDLLCTPEVSQELYDLNVELSKVSLTPDFSACRAYWKTTLSAEQNAHMEAVLQRSAAHMRHLLMSQQTLRNVPPIVFVQDKGNAALAELDQLLAVAD | soluble
RLVDESALEEFLTREIGPAETFDVARHEQGHSNETLFVTWGDRELVVRRPPPGQTAETAHDVLREYRVIDALQDTAVPVPPTVTACDDQTIIGSDFYVMARVEGTVIRDDEPARFGSDDARAAVGTELVDTLAAIHEVDPTAVGLSDLGRADGYAKRQVARWGKQLAWAFERTAESRTIPELERVGSWLQDECPDDHPKTLVHGDYKLDNVMFGPGDDPELAAVFDWEMATLGDPRADLGWLLSYWRD | not soluble
RRAELNTNETDESEKVIEGYFAVFNSETELFPGAFEEILPGAFDNTLENDVRALINHDTALVLGRNVSKTLSLRVDDKGLWGQIKINPLDSDAINLYERVKRGDVSQCSFGFNIIKEQEEWRDDGSVKWSLEEVELHEVSVCTFPAY | not soluble
RRVADEIVISHPELADEVDTVCNKIQAGKPMPESLRELVVRTGLEELMGLVSMLSHASRIGGSLVNSLREYTEDYRDKRQQAAEEIAAKIPVK | not soluble
RSAFSKIESEEYNSLKSSTIQTIGTSDGGSGIGYIESGDYLVFNKINFGNGANSFKARVASGADTPTNIQLRLGSPTGTLIGTLTVASTGGWNNYEEKSCSITNTTGQHDLYLVFSGPVNIDYFIFDSNGVNP | soluble
RSEYVAPRSVWEARLAQVWEQVLNVPQVGALDDFFALGGHSLRAMRVLSSMHNEYQVDIPLRILFEKPTIQELAAFIEETAKGNVFSIEPVQKQAYYPVSSAQKRMYILDQFEGVGISYNMPSTMLIEGKLERTRVEAAFQRLIARHESLRTSFAVVNGEPVQNIHEDVPFALAYSEVTEEEARELVSSLVQPFDLEVAPLIRVSLLKIGEDRYVLFTDMHHSISDGVSSGILLAEWVQLYQGDVLPELRIQYKDFAVWQQEFSQSAAFHKQEAYWLQTFADDIPVLNLPTDFTRPSTQSFAGDQCTIGAGKALTEGLHQLAQATGTTLYMVLLAAYNVLLAKYAGQEDIIVGTPITGRSHADLEPIVGMFVNTLAMRNKPQREKTFSEFLQEVKQNALDAYGHQDYPFEELVEKLAIARDLSRNPLFDTVFTFQNSTEEVMTLPECTLAPFMTDETGQHAKFDLTFSATEEREEMTIGVEYSTSLFTRETMERFSRHFLTIAASIVQNPHIRLGEIDML | soluble
RSIRLPETIDLGALYLSMKDTEKGIKELNLEKDKKIFNHCFTGNCVIDWLVSNQSVRNRQEGLMIASSLLNEGYLQPAGDMSKSAVDGTAENPFLDNPDAFYYFPDSGFFCEEN | soluble
RTDTIMVLHMPRTGEPTLLSIPRDSYVNVPGWGMDKANAAFTVGGPELLTQTVEEATGLRIDHYAEIGMGGLANMVDAVGGVEMCPAEPMYDPLANLDIQAGCQEFDGAAALGYVRTRATALGDLDRVVRQREFFSALLSTATS | not soluble
RTVTLTRERIRLEDRAVKMSVKTVGKEKVGVLDIPGFYVGLTDDVKVQLQKLEKQNVSSVIIDLRSNGGGALTEAVSLSGLFIPSGPIVQVRDNNGKVREDSDTDGQVFYKGPLVVLVDRFSASASEIFAAAMQDYGRALVVGEPTFGKGTVQQYRSLNRIYDQMLRPEWPALGSVQYTIQKFYRVNGGSTQRKGVTPDIIMPTGNEETETGEKFEDNALPWDSIDAATYVKSGDLTAFEPELLKEHNARIAKDPEFQNIMKDIARFNAMKDKRNIVSLNYAVREKENNEDDATRLARLNERFKREGKPELKKLDDLPKDYQEPDPYLDETVNIALDLAKLEKARPAEQPA | not soluble
RVLQELHESEAQNRALLNAIPDMMLHVCREGTILDFRAGNGCAYAAFGGNLRGRTIADLLPPGAAAQFMAQVGHALATGTMMVCEYELEGPGGLNTHEARIVANGTGTVLAIVRDVT | not soluble
RVQLLESGAELMKPGASVQISCKATGYTFSEYWIEWVKERPGHGLEWIGEILPGSGRTNYREKFKGKATFTADTSSNTAYMQLSSLTSEDSAVYYCTRGYSSMDYWGQGTSVTVSAAKTTPPSVYPLAPGCGDTTGSSVTLGCLVKGYFPESVTVTWNSGSLSSSVHTFPALLQSGLYTMSSSVTVPSSTWPSQTVTCSVAHPASSTTVDKKLEPSGPI | soluble
RVVTQNEIDRTIPVGAIMMWAADSLPSDAWRFCHGGTVSASDCPLYASRIGTRYGGSSSNPGLPDMRGLFVRGSGRGSHLTNPNVNGNDQFGKPRLGVGCTGGYVGEVQKQQMSYHKHAGGFGEYDDSGAFGNTRRSNFVGTRKGLDWDNRSYFTNDGYEIDPASQRNSRYTLNRPELIGNETRPWNISLNYIIKVKE | soluble
SAAGVPCALVTSCSSVFSGDQLVQHILGTEDLIVEVTSNDAVRFYPWTIDNKYYSADINLCVVPNKFLVTAEIAESVQAFVVYFDSTQKSGLDSVSSWLPLAKAWLPEVMILVCDRVSEDGINRQKAQEWCIKHGFELVELSPEELPEEDDDFPESTGVKRIVQALNANVWSNVVMKNDRNQGFSLLNSLTGTNHSIGSADPCHPEQPHLPAADSTESLSDHRGGASNTTDAQVDSIVDPMLDLDIQELASLTTGGGDVENFERLFSKLKEMKDKAATLPHEQRKVHAEKVAKAFWMAIGGDRDEIEGLSSDEEH | soluble
SAAPSEVAAIAPGEGDGGGGGFGSWLDGRLEALGVDRAVYGAYILGILQEEEEEEKLDALQGILSAFLEEDSLLNICKEIVERWSETQNVVTKVKKEDEVQAIATLIEKQAQIVVKPRMVSEEEKQRKAALLAQYADVTDEEESLTEADEKDDSGATTMNIGSDKLLFRNTNVEDVLNARKLERDSLRDESQRKKEQDKLQRERDKLAKQERKEKEKKRTQRGERKR | soluble
SADREGSVRVVGTAHVSSDSVEEVERVIDDEHPDTVAVELDEGRFRQMQGDAPDDLDATDLLKGSMAFQFLAYWLLSYAQRRLGEKFGIEPGADMQAAVDAANTAGADVALVDRDIQVTIQRFWARMSLPEKLRMGGELALGVTDSLTL | not soluble
SANKGQQPPYLHLAELTASQFLDIWKHFDADGNGYIEGKELDNFFSQLEIARRGAGVDPSNAAFKGRMTEFMQKFDKNKDGRIEMSELAQILPTEENFLLCFRQFVGSSTEFMAAWRKYDTDRSGFIEANELKGFLSDLLKKANRHYDDQKLQEYTQTILKMFDLNGDGKLGLSEMARLLPVQENFLLKFQGVRLSAEQFNAIFTYYDKDGNGYIDEQELDALLKDLYEKNNKEVDSKSLTGYKQSIMALSDGGKLYRSELEIVLCRDPML | soluble
SARLPKLAVFDLDYTLWPFWVDTHVDPPFHKSSDGTVRDRRGQDVRLYPEVPEVLKRLQSLGVPGAAASRTSEIEGANQLLELFDLFRCYLHSHPEWNESSNSKSRVRDICEGPNWAFEVQP | soluble
SASTGSQASDIDEIFGFFNDGEPPTKKPRKLLPSLKTKKPRELVLVIGTGISAAVAPQVPALKSWKGLIQALLDAAIDFDLLEDEESKKFQKCLHEDKNLVHVAHDLIQKLSPRTSNVRSTFFKDCLYEVFDDLESKMEDSGKQLLQSVLHLMENGALVLTTNFDNLLELYAADQGKQLESLDLTDEKKVLEWAQEKRKLSVLHIHGVYTNPSGIVLHPAGYQNVLRNTEVMREIQKLYENKSFLFLGCGWTVDDTTFQALFLEAVKHKSDLEHFMLVRRGDVDEFKKLRENMLDKGIKVISYGDDYADLPEYFKRLTCEISTRGTSAGMVREGQLNGSSAAHSEIRGCST | soluble
SDEDGLPLMGSGIDLTKVPAIQQKRTVAFLNQFVVHTVQFLNRFSAVCEEKLADLSLRIQQIETTLNILDAKLSSIPGLEDVTVEVSPLNVTAVTNGSHSETTSEQTQQNSTQDSGAQESEAPSENVLTVAKDPRYARYRKMVQVGVPVMAIRDKMISEGLDPELLEKPDAPVPNGESKRAVEESSDSDSSFSD | soluble
SDEEKKRRAATARRQHLKSAMLQLAVTEIEKEAAAKEVEKQNYLAEHSPPLSLPGSMQELQELSKKLHAKIDSVDEERYDTEVKLQKTNKELEDLSQKLFDLRGKFKRPPLRRVRMSADAMLRALLGSKHKVNMDLR | soluble
SDPRRNFQPGGYDSRNTFTSGSFGPPDFGESDEAELVSVSWNQDYSCFAAGTSHGFRIYNCEPFKETFRRELKDGGFKIVEMLFRSNILALVGGGPNSQYPSNKVLIWDDHQGRCISEFTFRSEIRAVKLRRDRIVVVLEHKIYVYNFMDLRLLHQIENMANPRGLCCLSHHMNTSVLACPGIRRGEVRVEHFGLNMVQIINAHDSNIACMTLTLDGLLLATASTKGTLIRIFNTMDGTRLQEVRRGVDRADIYSIALSPNVQWLAVSSDKGTVHIFSLRVRVIGEDAYSTEHETSSNSLQPLVSPASGANPGSSLSFLRGVLPKYFSSEWSFSQFHVPEVTQYFAAFGAQNTIAIIGLDGSFYRCNFDPVNGGEMTQLEHFHFLKQDSPR | soluble
SDQGLIFTNHHCGYGAIQSQSTVDHDYLRDGFVSRTMGEELPIPGLSVKYLRKIVKVTDKVEGQLKGITDEMERLRKAQEVCQELAKKENADENQLCIVEPFYSNNEYFLIVYDVFKDVRMVFAPPSSVGKFGGDTDNWMWPRHTGDFSVFRVYAGADNRPAEYSKDNKPYKPVYFAAVSMQGYKADDYAMTIGFPGSTDRYLTSWGVEDRIENENNPRIEVRGIKQGIWKEAMSADQATRIKYASKYAQSANYWKNSIGMNRGLARLDVIGRKRAEERAFADWIRKNGKSAVYGDVLSSLEKAYKEGAKANREMTYLSETLFGGTEVVRFAQFANALATNPDAHAGILKSLDDKYKDYLPSLDRKVLPAMLDIVRRRIPADKLPDIFKNVIDKKFKGDTKKYADFVFDKSVVPYSDKFHAMLKSMDKEKFAKAIEKDPAVELSKSVIAAARAIQADAMANAYAIEKGKRLFFAGLREMYPGRALPSDANFTMRMSYGSIKGYEPQDGAWYNYHTTGKGVLEKQDPKSDEFAVQENILDLFRTKNYGRYAENGQLHIAFLSNNDITGGNSGSPVFDKNGRLIGLAFDGNWEAMSGDIEFEPDLQRTISVDIRYVLFMIDKWGQCPRLIQELKLI | not soluble
SDVLASYSIFQELQLVHDTGYFSALPSLEETWQQTCLELERYLQTEPRRISETFGEDLDCFLHASPPPCIEESFRRLDPLLLPVEAAICEKSSAVDILLSRDKLLSETCLSLQPASSSLDSYTAVNQAQLNAVTSLTPPSSPELSRHLVKTSQTLSAVDGTVTLKLVAKKAALSSVKVRSLISAHGRDVSGVLHEAMSSRGTTGNTQVQSPSNATTATGVFPGLTILPST | soluble
SEDGGWNTIESDPAVFTQLLEDLGVKDVKVEEVLQLDAAFLRSLEPVHGLIFLFKWLPDQGSEQELSFSQDVDLFFANQVIQNACGTQALLSVVFNAKDLELGSELAEFKEFTKDFDPQTRGLALSNSETIRSAHNSLSGLQHFSFEFDEKEKSDSFHFISYVPFQGRIYELDGLKKGPICRGSYTAERHWTDVAISEIEKRIERYGEGEIRFNLLAVVRDPLKIWQQELLSYQTALESCSLEVERMSISMQMKEIQTRMEDEKKRRESIRRESNRRRHNMLPFIFHLIKWLHENSDLSFT | soluble
